The source of these data is publication PMC2712976 (The Journal of General Physiology, 2009).

For one data set, the target named is F-actin (UniProt P68135). The data set is described as follows: co-sedimentation.
The data set “gel electrophoresis” deals with the molecule itself. The data set is described as follows: gel electrophoresis.
Another data set has as its target CFP-SERCA1a (UniProt O14983-2 1-994). The data set is described as follows: FRET or BRET. Background: Bioluminescence resonance energy transfer reports proximity on the nanometre scale.

One may read the Kd as a measure of binding affinity in units of concentration. Higher therefore signals a looser complex. What is called stoichiometry N is the number of molecules, sites or subunits per partner or assembly. Turning to “first four N-terminal domains (C0-C1-motif-C2) of cardiac myosin binding protein C (domain or fragment)”, in the data set with F-actin, the Kd amounted to 10 µM and the stoichiometry N worked out at 1 molar ratio.

B1: WT phospholamban (in vitro sample) (natural protein)
chain: MEKVQYLTRSAIRRASTIEMPQQARQKLQNLFINFCLILICLLLICIIVMLL
Take B1: the “stoichiometry N” value in the data set “gel electrophoresis” stood at 5.

B2: YFP-PLB (natural protein)
chain: B1 chain
As to B2, in the data set with CFP-SERCA1a, the “fold higher apparent affinity relative to SERCA2a” value turned out to be 2.6 fold.
